Read-outs that look alike come from different tables or passages of the source.
Columns and labels:
Assay in all cases: co-sedimentation
[1] = molecular target: T1, filamentous actin (F-actin), chicken skeletal muscle (chicken, UniProt P68139 1-377)
[2] = molecular target: T1, filamentous actin (F-actin), chicken …; remark: listed apart in the source
[3] = molecular target: T1, filamentous actin (F-actin), chicken …; remark: listed apart in the source

Row | stoichiometry N [1] [Arg per actin monomer] | stoichiometry N [2] | fold decrease in affinity for F-actin in the presence of saturating Arg [3] [fold] | stoichiometry N [3] | Binder
1 | 0.5 |  |  |  | Abl2/Arg (Abelson-related gene) nonreceptor tyrosine kinase (enzyme) MGQQVGRVGEAPGLQQPQPRGIRGSSAARPSGRRRDPAGRTADAGFNVFTQHDHFASCVEDGFEGDKTGGSSPEVLHRPFGCDAESQALNEAIRWSSKENLLGATESDPNLFVALYDFVASGDNTLSITKGEKLRVLGYNQNGEWSEVRSKNGQGWVPSNYITPVNSLEKHSWYHGPVSRSAAEYLLSSLINGSFLVRESESSPGQLSISLRYEGRVYHYRINTTTDSKVYVTAESRFSTLAELVHHHSTVADGLVTTLHYPAPKCNKPTVYGVSPIHDKWEMERTDITMKHKLGGGQYGEVYVGVWKKYSLTVAVKTFKEDTMEVEEFLKEAAVMKEIKHPNLVQLLGVCTLEPPFYIVTEYMPYGNLLDYLRECSREEVTAVVLLYMATQISSAMEYLEKKNFIHRDLAARNCLVGENHVVKVADFGLSRLMTGDTYTAHAGAKFPIKWTAPESLAYNTFSIKSDVWAFGVLLWEIATYGMSPYPGIDLSQVYDLLEKGYRMEQPEGCPPKVYELMRACWKWSPADRPSFAETHQAFETMFHDSSISEEVAEELGRTASSSSVVPYLPRLPLLPSKTRTLRKQGENKENLDGGLDAAESLASSSAPAGFIRSTQASSGSPALPRKQRDKSPSSLLEDAKETCFTRDRKGGFFSSFMKKRNAPTPPKRSSSFREMENQPHKKYELTGNFSPVASLQNADGFSVAPSQQEPNLVPAKCYGGSFAQRNLCADDDSGGGGGSGTAGGGWSGITGFFTPRLIKKTLGLRAGKPTASDDTSKPFPRSNSTSSMSSGLPEQDRMAMTLPRNCQRSKLQLERTVSTSSQPEENVDRANDMLPKKSEEGAAPARERPKAKLLPRGATALPLRAPDPAITESDSPGVGVAGVAAAPKGKERNGGTRLGVAGVPEDGEQLGWSSPAKAVAVLPTTHNHKVPVLISPTLKHTPADVQLIGTDSQGNKFKLLSEHQVTSSGDKDRPRRVKPKCAPPPPPVMRLLQHPSTCSDPEEEPTAPPAGQHTPETQEGGKKAAPGPVPSSGKPGRPVMPPPQVPLPTSSISPAKMANGTAGTKVALRKTKQAAEKISADKISKEALLECADLLSSAITEPVPNSQLVDTGHQLLDYCSGYVDSIPQTRNKFAFREAVSKLELSLQELQVSSTAAGVPGTNPVLNNLLSCVQEISDVVQR
2 |  | 0.25 cortactin per actin monomer |  |  | cortactin (natural protein, exhibits tyrosine phosphorylation as purified from insect cells (anti-phosphotyrosine blot); sites not mapped here) not shown
3 |  | 0.25 cortactin per actin monomer | ~3 | 0.5 cortactin per actin monomer | cortactin 3YF (natural protein) not shown
4 |  | 0.25 cortactin per actin monomer |  | 0.5 cortactin per actin monomer | cortactin W525A (natural protein, exhibits tyrosine phosphorylation as purified from insect cells (anti-phosphotyrosine blot); sites not mapped here) not shown
5 |  |  | ~3 |  | cortactin W525A, enzymatically dephosphorylated (natural protein, dephosphorylated with CIP (no tyrosine phosphorylation on the anti-phosphotyrosine blot)) not shown

Reference: article PMC3556572 (Biochemistry, 2012)
